Measured values published in patent US20220089743A1 (Chugai, published 2022).
Where two headings read alike, the source gives them in different places.

How the values were obtained:
HLA-DQ7.3 on Ba/F3 cells = molecular target: T1, HLA-DQ7.3 on Ba/F3 cells (human, UniProt P01909 24-216; P01920 33-230, limits assumed); assay: FACS, Ba/F3 cells; %MFI with IC17dK 0 and DQN0139bb 100
T1 construct: whole, on cells; also called Ba/F3-HLA-DQ7.3
T1 MHC II alpha: not shown
T1 MHC II beta: not shown

HLA-DQ2.2 on Ba/F3 cells = molecular target: T2, HLA-DQ2.2 on Ba/F3 cells (human, UniProt P01909 24-216, limits assumed); assay: as above
T2 construct: whole, on cells; also called Ba/F3-HLA-DQ2.2
T2 MHC II alpha: not shown
T2 MHC II beta: not shown

HLA-DQ7.5 on Ba/F3 cells = molecular target: T3, HLA-DQ7.5 on Ba/F3 cells (human, UniProt P01909 24-216; P01920 33-230, limits assumed); assay: as above
T3 construct: whole, on cells; also called Ba/F3-HLA-DQ7.5

HLA-DQ8 on Ba/F3 cells = molecular target: T4, HLA-DQ8 on Ba/F3 cells (human, UniProt P01909 24-216; P01920 33-230, limits assumed); assay: as above
T4 construct: whole, on cells; also called Ba/F3-HLA-DQ8
T4 MHC II alpha: not shown
T4 MHC II beta: not shown

HLA-DQ2.5 on Ba/F3 cells = molecular target: T5, HLA-DQ2.5 on Ba/F3 cells (human, UniProt P01909 24-216, limits assumed); assay: as above
T5 construct: whole, on cells; MHC class II without a fused peptide; also called Ba/F3-HLA-DQ2.5

HLA-DQ5.1 on Ba/F3 cells = molecular target: T6, HLA-DQ5.1 on Ba/F3 cells (human, limits assumed); assay: FACS, Ba/F3 cells; raw MFI
T6 construct: whole, on cells; also called Ba/F3-HLA-DQ5.1
T6 MHC II alpha: not shown
T6 MHC II beta: not shown

HLA-DP on Ba/F3 cells = molecular target: T7, HLA-DP on Ba/F3 cells (human, UniProt P20036 29-222; P04440 30-225, limits assumed); assay: FACS, Ba/F3 cells; raw MFI
T7 construct: whole, on cells; also called Ba/F3-HLA-DP
T7 sequence (P20036 29-222 limits assumed, chain 1 of 4, other chains not shown): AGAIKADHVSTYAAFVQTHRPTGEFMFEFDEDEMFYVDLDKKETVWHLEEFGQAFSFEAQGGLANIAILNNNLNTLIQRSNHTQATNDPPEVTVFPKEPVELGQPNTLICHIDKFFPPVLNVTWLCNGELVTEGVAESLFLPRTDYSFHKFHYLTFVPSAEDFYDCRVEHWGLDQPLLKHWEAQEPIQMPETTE
T7 sequence (P04440 30-225 limits assumed, chain 2 of 4, other chains not shown): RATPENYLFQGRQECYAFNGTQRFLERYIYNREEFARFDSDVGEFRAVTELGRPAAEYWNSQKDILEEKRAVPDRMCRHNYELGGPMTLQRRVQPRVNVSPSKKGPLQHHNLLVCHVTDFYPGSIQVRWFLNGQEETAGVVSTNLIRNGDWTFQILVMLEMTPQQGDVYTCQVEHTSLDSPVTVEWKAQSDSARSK

HLA-DQ6.3 on Ba/F3 cells = molecular target: T8, HLA-DQ6.3 on Ba/F3 cells (human, UniProt P01920 33-230, limits assumed); assay: FACS, Ba/F3 cells; raw MFI
T8 construct: whole, on cells; also called Ba/F3-HLA-DQ6.3
T8 MHC II alpha: not shown
T8 MHC II beta: not shown

HLA-DR on Ba/F3 cells = molecular target: T9, HLA-DR on Ba/F3 cells (human, UniProt P01903 26-216; P79483 30-227, limits assumed); assay: FACS, Ba/F3 cells; raw MFI
T9 construct: whole, on cells; also called Ba/F3-HLA-DR
T9 MHC II alpha: not shown
T9 MHC II beta: not shown

[1] = molecular target: T10, HLA-DQ2.5 on IHW09023 cells loaded with gamma 1 gliadin peptide (human; wheat); assay: cell-based or functional assay
[2] = molecular target: T11, HLA-DQ2.5 on IHW09023 cells loaded with omega1/2 gliadin peptide (human; wheat); assay: cell-based or functional assay
[3] = molecular target: T12, HLA-DQ2.5 on IHW09023 cells loaded with BC hordein peptide (human; barley); assay: cell-based or functional assay
[4] = molecular target: T13, HLA-DQ2.5 on IHW09023 cells loaded with gamma 4d gliadin peptide (human; wheat); assay: cell-based or functional assay
[5] = molecular target: T14, HLA-DQ2.5 on IHW09023 cells loaded with gamma 2 gliadin peptide (human; wheat); assay: cell-based or functional assay
[6] = molecular target: T15, HLA-DQ2.5 on IHW09023 cells loaded with 33 mer gliadin peptide (human; wheat); assay: cell-based or functional assay
[7] = molecular target: T16, HLA-DQ2.5 on IHW09023 cells loaded with gamma 3 gliadin peptide (human; wheat); assay: cell-based or functional assay
[8] = molecular target: T17, HLA-DQ2.5 on IHW09023 cells loaded with gamma 4a gliadin peptide (human; wheat); assay: cell-based or functional assay
[9] = molecular target: HLA-DQ2.2 on HBBB2.2 cells loaded with 33 mer gliadin peptide (human; wheat); assay: cell-based or functional assay
[10] = molecular target: T10, HLA-DQ2.5 on IHW09023 cells loaded with …; assay: cell-based or functional assay; remark: listed apart in the source
[11] = molecular target: T11, HLA-DQ2.5 on IHW09023 cells loaded with …; assay: cell-based or functional assay; remark: listed apart in the source
[12] = molecular target: T12, HLA-DQ2.5 on IHW09023 cells loaded with …; assay: cell-based or functional assay; remark: listed apart in the source
[13] = molecular target: T13, HLA-DQ2.5 on IHW09023 cells loaded with …; assay: cell-based or functional assay; remark: listed apart in the source
[14] = molecular target: T14, HLA-DQ2.5 on IHW09023 cells loaded with …; assay: cell-based or functional assay; remark: listed apart in the source
[15] = molecular target: T15, HLA-DQ2.5 on IHW09023 cells loaded with …; assay: cell-based or functional assay; remark: listed apart in the source
[16] = molecular target: T16, HLA-DQ2.5 on IHW09023 cells loaded with …; assay: cell-based or functional assay; remark: listed apart in the source
[17] = molecular target: T17, HLA-DQ2.5 on IHW09023 cells loaded with …; assay: cell-based or functional assay; remark: listed apart in the source

B1: DQN0344H1013/L0620//DQN0385H1270/L0722-F6 (bispecific antibody)
heavy 1: QVQLVESGGGVVQPGRSLRLSCAASGFTFSSAYWMVWVRQAPGQGLEWMGAVYGGSDTTYYAKWTEGRFTISRDTSKNTLYLQMNSLRAEDTAVYYCAREPLNYYYYGELNVWGQGTLVTVSSASTKGPSVFPLAPSSKSTSGGTAALGCLVKDYFPEPVTVSWNSGALTSGVHTFPAVLKSSGLYSLSSVVTVPSSSLGTQTYICNVNHKPSNTKVDKRVEPKSCDKTHTCPPCPAPELRRGPSVFLFPPKPKDTLMISRTPEVTCVVVDVSHEDPEVKFNWYVDGVEVHNAKTKPREEQYNSTYRVVSVLTVLHQDWLNGKEYKCKVSNKALPAPIEKTISKAKGQPREPQVYTLPPSREEMTKNQVSLTCLVKGFYPSDIAVEWESNGQPENNYKTTPPYLDSDGSFFLYSKLTVDKSRWQEGNVFSCSVLHEALHAHYTREELSLSP
light 1: DIQMTQSPSSLSASVGDRVTITCQATENIYSGLAWYQQKPGKAPKLLIYYVSTLAYGIPARFSGSGSGTDFTLTISSLEPEDFAVYYCQTYEDVSAVTFGQGTKVEIKRTVAAPSVFIFPPSDEQLKSGTAEVVCLLNNFYPREAKVQWKVDNALQSGNSEESVTEQDSKDSTYSLSSTLTLSKADYEKHKVYACEVTHQGLSSPVTKSFNRGEC
heavy 2: QVQLVESGGGVVQPGRSLRLSCAASGFTFSEWYFMSWVRQAPGKGLEWVASIDTGSGSIDYAEWVEGRFTISRDNSKNTLYLQMNSLRAEDTAVYYCARDIGIDYNFWGPGTLVTVSSASTKGPSVFPLAPSSKSTSGGTAALGCLVEDYFPEPVTVSWNSGALTSGVHTFPAVLESSGLYSLSSVVTVPSSSLGTKTYICNVNHKPSNTKVDKRVEPKSCDKTHTCPPCPAPELRRGPSVFLFPPKPKDTLMISRTPEVTCVVVDVSHEDPEVKFNWYVDGVEVHNAKTKPREEQYNSTYRVVSVLTVLHQDWLNGKEYKCKVSNKALPAPIEKTISKAKGQPREPQVYTLPPSRKEMTKNQVSLTCLVKGFYPSDIAVEWESNGQPENNYKTTPPYLDSDGSFFLYSKLTVDKSRWQQGNVFSCSVLHEALHAHYTRKELSLSP
light 2: DIQMTQSPSSLSASVGDRVTITCQTTQSISSYLNWYQQKPGQPPKLLIYYASTKAEGIPARFSGSGLGTDFTLTISSLQPEDFAVYYCHYGISKVSFGQGTKVEIKRTVAAPSVFIFPPSDEQLKSGTAKVVCLLNNFYPREAKVQWKVDNALQSGNSKESVTEQDSKDSTYSLSSTLTLSKADYEKHKVYACEVTHQGLSSPVTKSFNRGEC
- binding result (HLA-DQ7.3 on Ba/F3 cells): no binding (tested: 0.05 ug/mL)
- binding result (HLA-DQ2.2 on Ba/F3 cells): no binding (tested: 0.05 ug/mL)
- binding result (HLA-DQ7.5 on Ba/F3 cells): no binding (tested: 0.05 ug/mL)
- binding result (HLA-DQ8 on Ba/F3 cells): no binding (tested: 0.05 ug/mL)
- binding result (HLA-DQ2.5 on Ba/F3 cells): no binding (tested: 0.05 ug/mL)
- binding result (HLA-DQ5.1 on Ba/F3 cells): no binding (tested: 0.05 ug/mL)
- binding result (HLA-DP on Ba/F3 cells): no binding (tested: 0.05 ug/mL)
- binding result (HLA-DQ6.3 on Ba/F3 cells): no binding (tested: 0.05 ug/mL)
- binding result (HLA-DR on Ba/F3 cells): no binding (tested: 0.05 ug/mL)
- IC50, γ1 gliadin TCR, 250 nM γ1 gliadin [1]: 1.03 ng/mL
- IC50, ω1 gliadin TCR, 25 µM ω1/2 gliadin [2]: 2.17 ng/mL
- IC50, ω2 gliadin TCR, 250 nM ω1/2 gliadin [2]: 0.22 ng/mL
- IC50, BC hordein TCR, 250 nM BC hordein [3]: 9.7 ng/mL
- IC50, γ4d gliadin TCR, 100 µM γ4d gliadin [4]: 10.1 ng/mL
- IC50, γ2 gliadin TCR, 250 nM γ2 gliadin [5]: 277 ng/mL
- IC50, α1a gliadin TCR, 250 nM 33mer gliadin [6]: 0.27 ng/mL
- IC50, α1b gliadin TCR, 250 nM 33mer gliadin [6]: 1.25 ng/mL
- IC50, α2 gliadin TCR, 250 nM 33mer gliadin [6]: 0.33 ng/mL
- IC50, γ3 gliadin TCR, 100 µM γ3 gliadin [7]: 3.31 ng/mL
- IC50, γ4a gliadin TCR, 25 µM γ4a gliadin [8]: 1150 ng/mL

B2: DQN0344H0976/L0591//DQN0385H1255/L0605-F6.v2 (bispecific antibody, V domains shown)
VH 1: QVQLVESGGGVVQPGGSLRLSCAASGFTFSSAYWMVWVRQAPGQGLEWMGAVYGGSDTTYYAKWTEGRFTISRDTSKNTLYLQMNSLRAEDTAVYYCAREPLNYYYYGELNLWGQGTLVTVSS
VL 1: DIQMTQSPSSLSASVGDRVTITCQATEEIYSGLAWYQQKPGKAPKLLIYYVSTLYEGIPARFSGSGSGTDFTLTISSLEPEDFAVYYCQTYEDVSAVTFGQGTKVEIK
VH 2: QVQLVESGGGVVQPGRSLRLSCAASGFTFSEWYFMSWVRQAPGKGLEWVASIDTGSGSIDYAGWVEERFTISRDNSKNTLYLQMNSLRAEDTAVYYCARDIGIDYNFWGPGTLVTVSS
VL 2: DIQMTQSPSSLSASVGDRVTITCQTTQSISSYLNWYQQKPGQPPKLLIYYASTKAEGIPARFSGSGSGTDFTLTISSLEPEDFAVYYCHYGISKVSFGQGTKVEIK
- IC50, HLA-DQ2.2, α1a gliadin TCR, 25 µM 33mer gliadin [9]: 1.72 ng/mL
- IC50, HLA-DQ2.2, α2 gliadin TCR, 1 µM 33mer gliadin [9]: 9.48 ng/mL
- IC50, γ1 gliadin TCR, 250 nM γ1 gliadin [10]: 1.62 ng/mL
- IC50, ω1 gliadin TCR, 25 µM ω1/2 gliadin [11]: 1.62 ng/mL
- IC50, ω2 gliadin TCR, 250 nM ω1/2 gliadin [11]: 0.18 ng/mL
- IC50, BC hordein TCR, 250 nM BC hordein [12]: 9.52 ng/mL
- IC50, γ4d gliadin TCR, 100 µM γ4d gliadin [13]: 8.69 ng/mL
- IC50, γ2 gliadin TCR, 250 nM γ2 gliadin [14]: 252 ng/mL
- IC50, α1a gliadin TCR, 250 nM 33mer gliadin [15]: 0.46 ng/mL
- IC50, α1b gliadin TCR, 250 nM 33mer gliadin [15]: 1.33 ng/mL
- IC50, α2 gliadin TCR, 250 nM 33mer gliadin [15]: 0.29 ng/mL
- IC50, γ3 gliadin TCR, 100 µM γ3 gliadin [16]: 1.55 ng/mL
- IC50, γ4a gliadin TCR, 25 µM γ4a gliadin [17]: 636 ng/mL
